Columns and labels:
NIH3T3 cells = assay: Luminescence in sandwich background, NIH3T3 cells; type: cell-based; details: sandwich background
Protocol: (§1) The PCR library in the Id-OgLuc-HT7 sandwich background was screened for additional variants with increased luminescence compared to 9B8 opt+K33N in sandwich background. Selected variants were then assayed in HEK293 and NIH3T3 cells. […] 1F7 (F) (SEQ ID NOs: 84 and 85) and 15H1 (F) (SEQ ID NOs: 86 and 87) had at least 1.3 fold-increase in luminescence in E. coli. 1F7 (F) was brighter than 9B8 opt+K33N in the sandwich background in HEK293 and NIH3T3 cells.
(§2) The variants 9B8 opt+K33N+T39T+K43R+Y68D (“V2”; SEQ ID NOs: 92 and 93), 9B8 opt+K33N+L27V+K43R+Y68D (SEQ ID NOs: 339 and 340), 9B8 opt+K33N+L27V+T39T+K43R+S66N (SEQ ID NOs: 341 and 342), and 9B8 opt+K33N+L27V+T39T+K43R+Y68D (“L27V”; SEQ ID NOs: 88 and 89) were subcloned into the Id-OgLuc-HT7 sandwich background as described above and assayed in HEK293 and NIH3T3 cells as described above. The luminescence generated by the sandwiched variants were compared to the luminescence generated by the […] sandwich (SEQ ID NOs: 59 and 60) (Table 38). The L27V sandwich (SEQ ID NOs: 90 and 91) and V2 sandwich (SEQ ID NOs: 94 and 95) had at least 1.3× fold-increase in luminescence in HEK293 and NIH3T3 cells.
(§3) The sandwich and non-sandwich versions of the variants V2, 9B8 opt+K33N+L27V+K43R+Y68D, 9B8 opt+K33N+L27V+T39T+K43R+S66N, and L27V were assayed in HEK293 and NIH3T3 cells as described in Example 37. The luminescence generated by the non-sandwiched variants was compared to the luminescence generated by the sandwiched variants (Table 39).

HEK293 cells = assay: Luminescence in sandwich background, HEK293 cells; type: cell-based, human; details: sandwich background
Protocol: as §1, §2, §3

B1: L27V, T39T, K43R, Y68D Sand: L27V in Id-OgLuc-HT7 sandwich (SEQ ID NO: 91) (protein)
chain: MLGLSEQSVSISRCAGTRLPALLDEQQVNVLLYDMNGCYSRLKELVPTLPQNRKVSKVEILQHVIDYIRDLQLELNSESEVGTTGGRGLPVRAPLSTLNGEISALAAEAACVPADDRILCRVSLENLYFQASGGGGGAIAMVFTLEDFVGDWRQTAGYNLDQVLEQGGVSSLFQNLGVSVTPIQRIVLSGENGLKIDIHVIIPYEGLSGDQMGQIEKIFKVVYPVDDHHFKVILHYGTLVIDGVTPNMIDYFGRPYEGIAVFDGKKITVTGTLWNGNKIIDERLINPDGSLLFRVTINGVTGWRLCERILAGYLEPTTEDLYFQSDNDGSEIGTGFPFDPHYVEVLGERMHYVDVGPRDGTPVLFLHGNPTSSYVWRNIIPHVAPTHRCIAPDLIGMGKSDKPDLGYFFDDHVRFMDAFIEALGLEEVVLVIHDWGSALGFHWAKRNPERVKGIAFMEFIRPIPTWDEWPEFARETFQAFRTTDVGRKLIIDQNVFIEGTLPMGVVRPLTEVEMDHYREPFLNPVDREPLWRFPNELPIAGEPANIVALVEEYMDWLHQSPVPKLLFWGTPGVLIPPAEAARLAKSLPNCKAVDIGPGLNLLQEDNPDLIGSEIARWLSTLEISG
Fold over 9B8 opt + K33N sandwich, NIH3T3 (NIH3T3 cells): 1.4
Fold over 9B8 opt + K33N sandwich, HEK293 (HEK293 cells): 1.7

— patent US9951373B2, “Oplophorus-derived luciferases, novel coelenterazine substrates, and methods of use” (Promega Corporation, priority 2010, dated 2018)
